# According to patent US20250287954A1, “METHOD AND COMPOSITION OF SYNERGISTIC INSECTICIDAL MIXTURES” (priority 2022, published 2025):
# B1: sct1: Scott protein, ~20 kDa, extracellular secreted hypothetical protein of MBI-203, SEQ ID NO: 1 (protein, listed as Chromobacterium subtsugae)
# chain: MSLTTDFLENPQAFMRSQAILIPAQVPPGNGKYQFAAQGAHAAVLQSTAASPNIPGFYAHPVANNINLFVLPTQQPARYYMFTDGMNGCQFLAYGPDRQHITVEHNNFIGDPTRYAARLAEVVALKPAYLLHISPSGVNNIPAGQYNSQQGVNIVGEYGQANGWRFWVRDRVDQNQGTVYGPL
# System: Cabbage Loopers
# Assay: Cabbage looper diet overlay bioassay (mortality at 4 days after treatment)
# Type: in vivo
# Description: Insecticidal bioassay: Activity against Cabbage Loopers was tested on Diet Overlay Bioassays. The appropriate artificial insect diet was dispensed into each well of a standard 96 well plate and allowed to dry. Once the diet solidified, 100 μL of the treatment was pipetted into the appropriate number of wells and allowed to dry. A single 1st instar larva was delivered into each well of a 96 well plate. Mortality was scored at 4 days after treatment.
# Efficacy is expressed as percentage mortality at 4 days post treatment. Results (in duplicates) in % mortality are shown in above Table/chart.
# FIG. 6 a plot of an insecticidal bioassay results for various purified compound with and without Sct1. Previous studies have shown that the insecticidal activity present in MBI-203 whole cell broth is mainly attributed to the synergy between secondary metabolites (chromamide analogues) and protein (Sct1). However, for these studies were carried out using mixed chromamides (a mixture of four analogues) and Sct1. With an objective to determine which chromamide analogue is critical for the observed synergy, these individual compounds were purified from MBI-203 WCB, and tested as mixture and individual compounds using the chewing bioassay. All compounds were tested at 3% rate based on the concentration of each present in the MBI-203 WCB. “Chroma mix” contained the chromamides MW 860, MW 874A, MW 874B, and MW 876.
# Determination of LC50 value for MW 860 & Sct1. Based on the results from the above testing of purified compounds with & without Sct1, the LC50 for the MW 860, Chromamides MIX and Sct1 was determined. The individual pure compound and their mix were combined with Sct1 and submitted for determining the LC50 value.
# FIG. 7 a plot of the effect of variation of concentration of MW 860 & Sct1 on insecticidal activity. Dose dependent study for MW 860 & Sct1 as mixture. To determine the minimum range of concentration of both MW 860 and Sct1 needed for good insecticidal activity, different ratios of both compounds were prepared and submitted for insecticidal bioassay.
molecule,measurement,setting,value
O=C1NC(c2c[nH]c3ccc(O)cc23)=C/C1=C1\C(=O)Nc2ccccc21 [violacein],% Mortality (Cabbage Looper Assay) with sct1 (average of 4 bioassays),in vivo,3.269%
chromamide A [MW 860],mortality,"in combination with Sct1, 3% dose, Cabbage looper (CL) bioassay, two subsequent testings",92%
B1,insecticidal activity when tested individually,"tested individually, 3% rate based on concentration in MBI-203 WCB (FIG. 6)",did not show any significant activity
same,% Mortality (Cabbage Looper Assay) with sct1 (average of 4 bioassays),"with sct1, 4 days post treatment, compounds at 2% rate based on concentration in MBI-203 WCB, * samples neat (D30 1%, CSM2 2%)",1.087%
same,% Mortality (Cabbage Looper Assay) without sct1 (average of 3 bioassays),"without sct1, 4 days post treatment, compounds at 2% rate based on concentration in MBI-203 WCB, * samples neat (D30 1%, CSM2 2%)",1.087%
